# Data taken from patent publication US20060228300A1.
# Experiments:
# [1] = molecular target: fusion protein containing the A3B3 domain of CEA (UniProt P06731); assay: competitive ELISA vs HRP-conjugated hMN-14 IgG (1 nM) on the A3B3 fusion protein
# [2] = molecular target: CEA (UniProt P06731); assay: SE-HPLC of 125I-TF2 mixed with a 20-fold molar excess of CEA
# CEA, sequence (P06731 35-685 limits assumed): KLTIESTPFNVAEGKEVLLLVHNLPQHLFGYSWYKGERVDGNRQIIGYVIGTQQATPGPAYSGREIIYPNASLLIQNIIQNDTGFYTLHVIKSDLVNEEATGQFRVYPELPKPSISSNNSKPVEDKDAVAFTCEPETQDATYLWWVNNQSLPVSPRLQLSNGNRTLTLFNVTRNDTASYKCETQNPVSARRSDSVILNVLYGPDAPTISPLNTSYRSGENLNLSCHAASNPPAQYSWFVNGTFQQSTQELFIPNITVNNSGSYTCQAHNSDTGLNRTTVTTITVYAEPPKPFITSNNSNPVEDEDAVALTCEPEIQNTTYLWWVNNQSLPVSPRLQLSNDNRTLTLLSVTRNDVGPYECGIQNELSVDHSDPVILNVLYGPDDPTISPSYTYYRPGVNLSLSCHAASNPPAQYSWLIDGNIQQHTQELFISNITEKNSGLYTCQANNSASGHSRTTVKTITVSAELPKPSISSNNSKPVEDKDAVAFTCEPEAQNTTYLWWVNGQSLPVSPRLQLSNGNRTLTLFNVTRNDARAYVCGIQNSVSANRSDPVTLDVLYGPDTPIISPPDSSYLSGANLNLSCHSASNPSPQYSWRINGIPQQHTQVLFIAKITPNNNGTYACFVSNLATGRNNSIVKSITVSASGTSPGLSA
# fusion protein containing the A3B3 domain of CEA, sequence (P06731 499-676): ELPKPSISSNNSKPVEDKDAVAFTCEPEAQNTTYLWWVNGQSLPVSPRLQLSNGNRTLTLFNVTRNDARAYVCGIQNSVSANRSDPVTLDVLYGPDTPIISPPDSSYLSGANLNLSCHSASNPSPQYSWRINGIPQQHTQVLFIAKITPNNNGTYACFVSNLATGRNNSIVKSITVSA
substance,measurement,setting,value
TF2 (bispecific antibody),fold avidity against TF1,[1],2 fold
same,percent shifted to a high molecular weight species,[2],95%
